Measurements: the supplement of paper PMC9732359
± gives the uncertainty stated by the source.

Test: protein stability index of a GFP-peptide fusion (yeast GPS) (PSI 1-4); higher = more stable; sorted into four equal gates, so the index is relative within each strain
Procedure, shortened: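 Plasmids isolated from each sorting gate were PCR-amplified and Illumina-sequenced, and barcodes assigned the reads to strains. The gates, four of equal size, were set by GFP/Cherry fluorescence ratio on mid-log cultures in leucine-free medium. These cultures were yeast carrying a pooled library of tiled 17-residue yeast protein peptides fused downstream of GFP on a plasmid that also expresses Cherry. The protein stability index is the sum of every gate's read frequency times its gate number.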

Sequence | protein stability index (doa10∆) | protein stability index (pdr5∆) | protein stability index (ubr1∆) | protein stability index (san1∆)
ENVQIGEDFMEVDYEDK [SRB4] | 3.48 ± 0.13 | 1.97 ± 0.17 | 2.2 ± 0.084 | –
DKKLNLNLPLQFSLPNG [SNF12] | 3.04 ± 0.085 | 3.02 ± 0.079 | 2.7 ± 0.075 | 2.62 ± 0.074
ALAGGKKSKKKWSKKSM [RPS25A] | 3.45 ± 0.12 | 3.42 ± 0.17 | 3.63 ± 0.09 | 3.23 ± 0.16
EALFQSRPDILSKIKFP [YCG1] | 2.75 ± 0.067 | 2.62 ± 0.057 | 3.13 ± 0.058 | 2.82 ± 0.067
SVNIAFAISMGYLFKVS [ECM29] | 2.21 ± 0.14 | 2.84 ± 0.13 | 3.22 ± 0.13 | 2.83 ± 0.093
CKKNTKKCLKLAYENKI [POP4] | 2.77 ± 0.068 | 2.7 ± 0.076 | 3.13 ± 0.067 | 2.87 ± 0.057
NNSKSRYPMNLLEFIID [ECM29] | 2.5 ± 0.086 | 2.69 ± 0.052 | 2.92 ± 0.097 | 2.64 ± 0.075
LSRYVKWPEYVRLQRQK [RPL8B] | – | 2.71 ± 0.24 | – | –
PEVVELCQKSPVMADLN [FAS2] | 2.63 ± 0.074 | 2.69 ± 0.078 | 2.73 ± 0.085 | 2.48 ± 0.11
TNYEMSYWQKSYFKNSV [LIN1] | 2.07 ± 0.038 | 2.09 ± 0.036 | 1.99 ± 0.037 | 2.09 ± 0.061
STVQTPITASMAAALPN [PGD1] | 1.59 ± 0.074 | 1.55 ± 0.099 | 1.4 ± 0.05 | 1.37 ± 0.11
RSNQYQRGKMHGLKQLR [NUT2] | 2.67 ± 0.1 | 2.91 ± 0.078 | 1.74 ± 0.076 | 1.48 ± 0.28
GFTASVSNQENAGTDIV [MED1] | 2.95 ± 0.14 | 2.91 ± 0.13 | 3.07 ± 0.072 | 2.64 ± 0.16
GAKNIEITVVKPDSDIV [PRE6] | 2.54 ± 0.047 | 2.46 ± 0.041 | 2.67 ± 0.059 | 2.57 ± 0.052
QQQSADHDDSTDDADDH [NSL1] | 2.91 ± 0.059 | 2.91 ± 0.064 | 3.01 ± 0.037 | 2.77 ± 0.057
NSLTVDGNNANYIYAGY [RPN14] | 2.87 ± 0.088 | 2.55 ± 0.078 | 2.85 ± 0.049 | 2.42 ± 0.092
SMNNDFQQQQQQQQQQQ [PGD1] | 2.43 ± 0.1 | 2.9 ± 0.16 | 2.29 ± 0.14 | 2.54 ± 0.11
LKKSEEIINNKTSSQTS [YMR153W/NUP53] | 3.08 ± 0.12 | 3.4 ± 0.15 | 3.19 ± 0.069 | 3.03 ± 0.13
ALETENMEIRNLRLKIL [GRR1] | 3.14 ± 0.065 | 2.9 ± 0.043 | 2.7 ± 0.03 | 2.82 ± 0.052
SKVQFDAKTSYPNEVLK [REC8] | 2.77 ± 0.05 | 3.08 ± 0.072 | 3.04 ± 0.067 | 3.06 ± 0.059
LIEYMENDAKKSKGDVD [NUT1] | 3.05 ± 0.11 | 3.1 ± 0.079 | 3.03 ± 0.058 | 3.1 ± 0.08
QWNKLTSFDIKREGRNE [POP6] | 3.31 ± 0.3 | – | – | –
SLADNEIALKGLESLLN [YCS4] | 2.81 ± 0.056 | 2.5 ± 0.067 | 2.94 ± 0.073 | 2.68 ± 0.075
NDNDITVKENESDSKLQ [UBP6] | 3.48 ± 0.12 | 3.24 ± 0.096 | 3.35 ± 0.081 | 3.15 ± 0.071
GCGNTQPTIRKDGLKLV [RPO21] | 2.42 ± 0.084 | 2.11 ± 0.056 | 2.41 ± 0.045 | 2.3 ± 0.17
QVKVKGQLGEMAKCLDN [YCS4] | 3.25 ± 0.11 | 3.17 ± 0.13 | 2.73 ± 0.076 | 3.19 ± 0.066
DPLYDITKVPALEFLNT [REC8] | 2.32 ± 0.069 | 2.72 ± 0.093 | 2.62 ± 0.083 | 2.61 ± 0.11

Sequence | protein stability index (doa10∆) | protein stability index (pdr5∆) | protein stability index (ubr1∆) | protein stability index (san1∆)
IIQNAQRDAVTLFCCLL [RPO21] | 2.88 ± 0.053 | 2.54 ± 0.055 | 2.44 ± 0.046 | 2.53 ± 0.051
PNCLFILKLLNGFMESA [SOH1] | 1.9 ± 0.17 | 1.54 ± 0.12 | 1.44 ± 0.18 | 1.68 ± 0.18
SSLPPGEILLPDIADIP [SNF5] | 3.12 ± 0.074 | 3.25 ± 0.063 | 3.25 ± 0.048 | 3.19 ± 0.076
RYANKRFRKAQCPIIER [RPS5] | 2.34 ± 0.16 | 2.12 ± 0.14 | 1.5 ± 0.054 | –
VNDKYKTCAEVIGGNSL [SMC3] | 3.06 ± 0.14 | 3.15 ± 0.16 | 3.21 ± 0.15 | 3.29 ± 0.11
VTTFVFTGQGSQEQGMG [FAS1] | 3.46 ± 0.15 | 3.49 ± 0.13 | 3.68 ± 0.18 | 3.48 ± 0.14
TNVNPSKNFNVILASSL [YML103C/NUP188] | 1.82 ± 0.05 | 2.16 ± 0.048 | 1.91 ± 0.045 | 1.99 ± 0.08
LIVDVKQQGVGLPTDAY [RPN8] | 2.07 ± 0.25 | 2.77 ± 0.25 | – | 1.28 ± 0.26
FQSQQRRKDTSMVLFFV [RPB9] | 1.55 ± 0.083 | 1.57 ± 0.14 | 1.46 ± 0.044 | 1.62 ± 0.16
KVIDLDTKLKAHELQSE [YIL149C/MLP2] | 2.55 ± 0.055 | 2.73 ± 0.053 | 2.69 ± 0.042 | 2.58 ± 0.059
GVGILYKGMASNDERIV [BRR2] | 2.44 ± 0.098 | 2.23 ± 0.081 | 3.15 ± 0.09 | 1.79 ± 0.11
KIENSVQIGAEIILDFL [CSI1] | 2.73 ± 0.24 | 2.83 ± 0.16 | 2.61 ± 0.11 | 2.38 ± 0.12
PWDTSLEVGRRFSPDED [MCD1] | 3.25 ± 0.14 | 3.44 ± 0.19 | 3.41 ± 0.17 | 3.28 ± 0.15
YKPGSITLENITRLCQT [MED1] | 2.14 ± 0.044 | 2.23 ± 0.041 | 1.99 ± 0.032 | 1.79 ± 0.046
TSINHKIYRVGKGDDEA [RPL3] | 3.44 ± 0.071 | 3.61 ± 0.1 | 3.28 ± 0.11 | 3.67 ± 0.044
ECATCHGNLASCHGHFG [RPO31] | 2.9 ± 0.072 | 3.17 ± 0.12 | 3.04 ± 0.056 | 2.92 ± 0.067
SKIRKIHIQETQEFSKN [SIR3] | 3.45 ± 0.11 | 3.08 ± 0.15 | 3.36 ± 0.084 | –
GKDLSPAINYTKLKNAV [QCR2] | 1.91 ± 0.064 | 1.64 ± 0.06 | 1.54 ± 0.048 | 2.15 ± 0.094
KLRKIAISKKNKSLKYV [LIN1] | 1.65 ± 0.062 | 1.33 ± 0.059 | 1.15 ± 0.048 | 1.23 ± 0.14
QIPTPNNTVDPGFDEFQ [CSI1] | 3.17 ± 0.057 | 2.98 ± 0.045 | 2.89 ± 0.039 | 3.04 ± 0.043
PELLDSLAILGMNLLSN [SWI1] | 2.1 ± 0.061 | 2.21 ± 0.073 | 1.92 ± 0.066 | 2.05 ± 0.079
ADLQGSEDHSFRKIKLR [RPS1A] | 3.17 ± 0.051 | 3.13 ± 0.061 | 3.15 ± 0.048 | 3.06 ± 0.047
SLIEDFVDGIANSKKST [SRB7] | 3.29 ± 0.14 | 3.35 ± 0.092 | 3.04 ± 0.062 | 3.03 ± 0.062
INGEPSIHVNRVERSSR [RRI1] | 2.99 ± 0.078 | 3.01 ± 0.067 | 3.1 ± 0.051 | 3.1 ± 0.053
TEKQRKKQIAFPQRKYA [RPL35A] | 1.16 ± 0.062 | 1.44 ± 0.096 | 1.15 ± 0.08 | 1.13 ± 0.21
SMHLLKDWTDTFVYILE [SRB8] | 3.06 ± 0.057 | 2.95 ± 0.06 | 2.97 ± 0.059 | 2.88 ± 0.047
QDKMFVSNPIRKVFKPS [FAS1] | 3.01 ± 0.058 | 2.62 ± 0.054 | 2.68 ± 0.06 | 2.03 ± 0.1

Sequence | protein stability index (doa10∆) | protein stability index (pdr5∆) | protein stability index (ubr1∆) | protein stability index (san1∆)
GYLDDSEILIISSLMFD [IRR1] | 2.79 ± 0.071 | 2.91 ± 0.06 | 2.75 ± 0.046 | 2.89 ± 0.07
GPLAEEPIYGVQYKLLS [SNU114] | 2.9 ± 0.11 | 2.6 ± 0.12 | 3.17 ± 0.13 | 2.74 ± 0.08
RIGRIEDVTPVPSDSTR [RPS14A] | 2.85 ± 0.082 | 3.15 ± 0.065 | 3.16 ± 0.052 | 3.26 ± 0.053
RYDYSDEVGRRSMLTVV [YCG1] | 2.02 ± 0.067 | 1.73 ± 0.062 | 1.97 ± 0.05 | 2.91 ± 0.094
IAEIKKTPLLKQYLSAS [RPL6A] | 2.65 ± 0.063 | 2.47 ± 0.065 | 2.25 ± 0.047 | 2.31 ± 0.065
AAASESDVAKQLASFGY [RPL16B] | 2.67 ± 0.032 | 2.62 ± 0.028 | 2.356 ± 0.019 | 2.28 ± 0.037
LLEQKKSIINSQRPGAR [ITC1] | – | 2.67 ± 0.2 | 2.62 ± 0.11 | 2.47 ± 0.23
SFVLNKNTIDFERFPSP [RPN4] | 2.4 ± 0.059 | 2.66 ± 0.058 | 2.88 ± 0.052 | 2.84 ± 0.057
RARVKAFPKDDRSKPVA [RPL3] | 2.85 ± 0.1 | 3.12 ± 0.1 | 3.15 ± 0.083 | 3.4 ± 0.047
NGFMHAGTTDNSFIKAN [RPN2] | 1.24 ± 0.055 | 1.33 ± 0.045 | 1.26 ± 0.051 | 1.35 ± 0.082
ILRRQAILRQQQQMANN [GAL11] | 2.49 ± 0.15 | 3.02 ± 0.16 | 2.65 ± 0.13 | 2.62 ± 0.18
GAQIVSKQIFTHPKDTF [ARP9] | 2.23 ± 0.069 | 1.51 ± 0.051 | 1.68 ± 0.033 | 2.04 ± 0.067
NSDDCMMEEIINVVIKA [ECM29] | 3.31 ± 0.14 | 3.67 ± 0.18 | 2.97 ± 0.11 | 3.14 ± 0.11
SLFGSIGDDGYDLLIST [SRB5] | 2.17 ± 0.087 | 2.07 ± 0.14 | 3.5 ± 0.11 | 3.05 ± 0.071
IIVAGYDDKNKGEVYTI [PRE3] | 3 ± 0.083 | 3.12 ± 0.096 | 3.45 ± 0.098 | 3.42 ± 0.089
AMLAAQDVAAKCKEVGI [RPS14B] | 2.36 ± 0.061 | 2.36 ± 0.065 | 1.96 ± 0.044 | 1.99 ± 0.073
KKTATEPKQKANAVQNN [SRP21] | 3.06 ± 0.086 | 3.19 ± 0.082 | 3.24 ± 0.12 | –
GFANSLTFILGQLLSVK [YML031W/NDC1] | 1.13 ± 0.13 | 1.46 ± 0.18 | 1.26 ± 0.12 | 1.2 ± 0.22
DNCCDFKVRTNLNDKFG [MED1] | 2.74 ± 0.19 | 3.22 ± 0.2 | 3.08 ± 0.092 | 2.79 ± 0.15
IDTDLFGAPNNPNSTAI [YGL172W/NUP49] | 2.8 ± 0.075 | 2.78 ± 0.063 | 2.59 ± 0.053 | 2.91 ± 0.053
INDNNTRPYILERARDV [YCG1] | 3.6 ± 0.23 | – | – | –
EAPFLTSGTSSEQFNVW [GAL11] | 2.56 ± 0.091 | 3.27 ± 0.072 | 3.21 ± 0.13 | 3.02 ± 0.062
LPEPTEGFAADDEPTTP [FAS1] | 3 ± 0.095 | 2.65 ± 0.099 | 2.92 ± 0.065 | 3.35 ± 0.15
EGDQAEVIFSFEGTPPF [YMR129W/POM152] | 3.29 ± 0.17 | 3.39 ± 0.17 | 3.36 ± 0.1 | 2.52 ± 0.21
TELASKDNAIYNGFIDI [YCS4] | 1.42 ± 0.072 | 1.68 ± 0.071 | 1.48 ± 0.05 | 1.09 ± 0.14
